Test results: PMC12947862, “Oligomerization enables the selective targeting of an intrinsically disordered region by a small molecule” (Science Advances, 2026)

B1: AR AD fragment transactivation unit 5 (Tau-5*; residues 330 to 448) [human (from the printed UniProt entry)] / itself (parent)
chain: AAGSSGTLELPSTLSLYKSGALDEAAAYQSRDYYNFPLALAGPPPPPPPPHPHARIKLENPLDYGSAWAAAAAQCRYGDLASLHGAGAAGPGSGSPSAAASSSWHTLFTAEEGQLYGPC

Variants of: B1
Assay: 2D 1H-15N NMR, concentration-dependent CSPs (self-association)
Settings: with itself; protein concentration from 25 to 400 μM; read off a plot

Variant	response
chain 1 W104A H105A F108A	0.0068 p.p.m.
chain 1 L107P	0.0065 p.p.m.
chain 1 C75Y	0.019 p.p.m.
chain 1 G65A S66A G78A	0.02 p.p.m.
chain 1 G78A	0.013 p.p.m.
chain 1 A69P	0.005 p.p.m.
